Test results as given in publication PMC5095149, “Molecular cloning, heterologous expression, and enzymatic characterization of lysoplasmalogen‐specific phospholipase D from Thermocrispum sp” (FEBS Open Bio, 2016).

What was measured:
[1] = biological target: T1, LyPls-PLD (rLyPls-PLD) (Thermocrispum sp. RD004668, UniProt A0A0U4VTN7); assay: inhibition of LyPlsCho hydrolysis, choline oxidase/peroxidase colorimetric assay; type: biochemical; settings: read-out: Relative activity (%) ^a
T1 construct: gene lyspls; pET24a(+), E. coli SHuffle T7, HisTrap purified; kinetics calculated as monomer
Text: inhibition of LyPlsCho hydrolysis, choline oxidase/peroxidase colorimetric assay on LyPls-PLD (rLyPls-PLD)

[2] = substrate: CCCCCCCCCCCCCCCC/C=C\OC[C@@H](O)COP(=O)([O-])OCC[N+](C)(C)C; assay: choline release, choline oxidase/peroxidase colorimetric assay; nonlinear Michaelis-Menten fit; type: biochemical, Thermocrispum sp. RD004668; settings: 80 mM Tris/HCl pH 8.0, 50 °C, 2 mM CaCl2, 30 s
Text: choline release, choline oxidase/peroxidase colorimetric assay; nonlinear Michaelis-Menten fit on LyPls-PLD (rLyPls-PLD)

[3] = substrate: CCCCCCCCCCCCCCCC/C=C\OC[C@@H](O)COP(=O)(O)OCCN; assay: purified protein; settings: 80 mM Tris/HCl pH 8.0, 50 °C
[4] = substrate: CCCCCCCCCCCCCCCC/C=C\OC[C@@H](O)COP(=O)([O-])OCC[N+](C)(C)C; assay: choline release, choline oxidase/peroxidase colorimetric assay; Hanes-Woolf plot; type: biochemical, Thermocrispum sp. RD004668; settings: 80 mM Tris/HCl pH 8.0, 50 °C, 2 mM CaCl2
Text: choline release, choline oxidase/peroxidase colorimetric assay; Hanes-Woolf plot on LyPls-PLD (rLyPls-PLD)

CCCCCCCCCCCCCCCC(=O)OC[C@@H](O)COP(=O)([O-])OCC[N+](C)(C)C [LPC, 1‐palmitoyl‐2‐hydroxy‐sn‐glycero‐3‐phosphocholine]
activity at 4000 µM [1]: 60.7 ± 0.5%

CCCCCCCCCCCCCCCCCC(=O)OC[C@@H](O)COP(=O)(O)O [LPA, 1‐stearoyl‐2‐hydroxy‐sn‐glycero‐3‐phosphate]
activity at 4000 µM [1]: 89.8 ± 0.3%

B1: LyPls-PLD (rLyPls-PLD) (Thermocrispum sp. RD004668) (protein)
chain: TTRTTDNPWLDARVLNMAHAGGENEAPANTLYAFKRAVKLGANMLELDVQSTKDDQLVVIHNATVDQTTDGTGKVRDLTFEQVHELDAAYNFIPGRHAVPGEPPESYPLRGVRTGEKKPPPGYQPSDFAIPKLADVLEAFPRTPINIEIKGTSDADIPSFLHNAKLLARLLKKTGRTDFIVTSFNDLAVAKFHLLAPDIPIAPGMAGLAAYFLLGVKPMHGTVALQIPVRYQGLEIATPEFIRRAHADGYAVHVWFSGTAPDDEATYNRIIDSCADGLMPAYPALLERILDERGIERPGRPGVDPCG
notes: pET24a(+), E. coli SHuffle T7, HisTrap purified; kinetics calculated as monomer
Km [2]: 0.0132 mM
kcat [2]: 70.6 s⁻¹
kcat/Km [2]: 5.34e+06 M⁻¹ s⁻¹
Km ([3]; 2 mM CaCl2, 3 min): 0.456 mM
kcat ([3]; 2 mM CaCl2, 3 min): 4.51 s⁻¹
kcat/Km ([3]; 2 mM CaCl2, 3 min): 9900 M⁻¹ s⁻¹

B2: LyPls-PLD (rLyPls-PLD) (Thermocrispum sp. RD004668; F211A) (protein)
chain: TTRTTDNPWLDARVLNMAHAGGENEAPANTLYAFKRAVKLGANMLELDVQSTKDDQLVVIHNATVDQTTDGTGKVRDLTFEQVHELDAAYNFIPGRHAVPGEPPESYPLRGVRTGEKKPPPGYQPSDFAIPKLADVLEAFPRTPINIEIKGTSDADIPSFLHNAKLLARLLKKTGRTDFIVTSANDLAVAKFHLLAPDIPIAPGMAGLAAYFLLGVKPMHGTVALQIPVRYQGLEIATPEFIRRAHADGYAVHVWFSGTAPDDEATYNRIIDSCADGLMPAYPALLERILDERGIERPGRPGVDPCG
notes: as for B1
Km [4]: 0.112 mM
kcat [4]: 24.8 s⁻¹
kcat/Km [4]: 221000 M⁻¹ s⁻¹
Km ([3]; 2 mM CaCl2): 0.281 mM
kcat ([3]; 2 mM CaCl2): 2.88 s⁻¹
kcat/Km ([3]; 2 mM CaCl2): 10300 M⁻¹ s⁻¹
